This passage reports koff results from patent publication US20190276551A1.

For this assay, the target named is human CD38 protein immobilised on AR2G biosensor (human) (UniProt P28907). Kind of assay: Octet BLI, immobilised CD38.

Consider Daratumumab scFv, for which the koff was 0.0044 s⁻¹.
